Laboratory results published in PMC11783756, “Sorbitol induces flavonoid accumulation as a secondary signal via the nanoencapsulated SPc/lncRNA809-MmNAC17 module against Alternaria alternata in Malus micromalus”.

T1: MmNAC17 (Malus micromalus, UniProt D9ZJ94 1-336)
T1 sequence: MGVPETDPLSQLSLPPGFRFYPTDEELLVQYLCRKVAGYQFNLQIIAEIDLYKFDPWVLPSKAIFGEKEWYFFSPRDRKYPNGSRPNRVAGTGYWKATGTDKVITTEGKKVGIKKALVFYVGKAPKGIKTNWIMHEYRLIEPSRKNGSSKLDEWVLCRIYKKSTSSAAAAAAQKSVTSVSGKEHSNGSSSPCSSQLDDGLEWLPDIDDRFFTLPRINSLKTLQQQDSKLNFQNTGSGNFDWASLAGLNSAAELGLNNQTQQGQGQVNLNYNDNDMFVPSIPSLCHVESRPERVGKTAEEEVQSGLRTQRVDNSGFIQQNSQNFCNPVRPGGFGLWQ

B1: proMmLAR probe (dsDNA)
DNA 1: GAAGATATCACACGTAGCCAAAAGCG
DNA 2: CGCTTTTGGCTACGTGTGATATCTTC
B2: proMmF3H probe (dsDNA)
DNA 1: AGGTGAAGATCACGTGGCGCAATTTC
DNA 2: GAAATTGCGCCACGTGATCTTCACCT

Target: T1, MmNAC17
Test: EMSA; binding disrupted by unlabeled competitor (100x); Chemiluminescence EMSA kit (Beyotime); binding buffer, salt, pH and temperature not stated
Conditions: protein: recombinant; tags: His (pET-30a, Ni-NTA purified); chain copies: 2; blunt

Row | Binder | binding result
1 | B1 | binds
2 | B2 | binds
